In PMC3378860:

Columns and labels:
Experiment in all cases: EMSA
[1] = tested on: SWI/SNF complex ((yeast))
[2] = tested on: I-S-I complex (ISW2 with Snf2 ATPase domain) ((yeast))
ISW2 complex ((yeast)) = tested on: ISW2 complex ((yeast))

## 217 bp DNA
[1]
  Kd: 20 nM
[2]
  Kd: 31 nM
ISW2 complex ((yeast))
  Kd: 25 nM
